The results in this text go back to patent US20080058263A1 (published 2008).

Holding throughout (assay): receptor-Fc IP
One test concerns the target T1, VEGFR-3-Fc (UniProt P35916 25-328).
T1 construct: domain: first three Ig domains; conditioned supernatant of 293T cells; also called VEGFR-3-Fc fusion protein; not shown: Fc fragment of the pIg vector
T1 sequence (looked up): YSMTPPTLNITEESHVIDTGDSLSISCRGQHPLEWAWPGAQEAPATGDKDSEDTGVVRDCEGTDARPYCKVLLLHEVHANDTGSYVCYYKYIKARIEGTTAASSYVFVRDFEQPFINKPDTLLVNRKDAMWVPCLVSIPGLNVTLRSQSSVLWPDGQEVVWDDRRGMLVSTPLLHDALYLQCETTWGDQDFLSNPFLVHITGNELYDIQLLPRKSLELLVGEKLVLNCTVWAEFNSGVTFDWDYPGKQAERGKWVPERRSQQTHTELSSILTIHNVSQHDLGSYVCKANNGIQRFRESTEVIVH
How it is done:
(§1) The binding assay procedure was identical to the immunoprecipitation using pentahistidine antibody described in Example 2, apart from the composition of the immunoprecipitation (IP) mixes. The IP mixes used for the receptor binding analysis were as follows: For VEGFR-1 binding assays, the IP mix was phosphate buffered saline (PBS) containing 1.5% BSA, 0.06% Tween 20, 3 μg/ml heparin and 400 ng/ml VEGFR-1-Fc fusion protein (100 μl of this IP mix was added to 200 μl of sample supernatant); for VEGFR-2 binding assays, the IP mix was 82% conditioned cell supernatant from 293T cells transiently expressing VEGFR-2-Fc fusion protein in mixture with 18% of a PBS solution that contained 5% BSA, 0.2% Tween 20, and 10 μg/ml heparin (250 μl of IP mix was added to 200 μl of sample supernatant); and for VEGFR-3 binding assays, the IP mix was 82% conditioned cell supernatant from 293T cells transiently expressing VEGFR-3-Fc fusion protein, 18% of PBS containing 5% BSA, 0.2% Tween 20, and 10 μg/ml heparin (250 μl of IP mix was added to 200 μl of sample supernatant).

The target of another test is T2, VEGFR-2-Fc (UniProt P35968 20-322).
T2 construct: domain: first 3 Ig domains; conditioned supernatant of 293T cells; also called VEGFR-2-Fc fusion protein; not shown: Fc fragment of the pIg vector
As to the method:
as §1

Another test has as its target T3, VEGFR-1-Fc (UniProt P17948 27-338).
T3 construct: domain: first three Ig domains; expressed in Drosophila S2 cells, purified on Protein A sepharose; also called VEGFR-1-Fc fusion protein; not shown: Fc fragment from the Signal-pIgPlus vector
As to the method:
as §1

T2 sequence (P35968 20-322): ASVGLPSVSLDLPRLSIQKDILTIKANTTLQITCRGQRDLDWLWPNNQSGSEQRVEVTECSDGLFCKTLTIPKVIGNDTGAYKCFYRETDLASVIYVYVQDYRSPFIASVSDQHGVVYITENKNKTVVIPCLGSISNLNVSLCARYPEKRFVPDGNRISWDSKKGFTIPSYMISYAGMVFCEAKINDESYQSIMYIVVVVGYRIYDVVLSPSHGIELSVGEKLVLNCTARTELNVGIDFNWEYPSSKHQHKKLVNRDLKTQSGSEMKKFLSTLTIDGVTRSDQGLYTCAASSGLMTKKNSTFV
T3 sequence (P17948 27-338): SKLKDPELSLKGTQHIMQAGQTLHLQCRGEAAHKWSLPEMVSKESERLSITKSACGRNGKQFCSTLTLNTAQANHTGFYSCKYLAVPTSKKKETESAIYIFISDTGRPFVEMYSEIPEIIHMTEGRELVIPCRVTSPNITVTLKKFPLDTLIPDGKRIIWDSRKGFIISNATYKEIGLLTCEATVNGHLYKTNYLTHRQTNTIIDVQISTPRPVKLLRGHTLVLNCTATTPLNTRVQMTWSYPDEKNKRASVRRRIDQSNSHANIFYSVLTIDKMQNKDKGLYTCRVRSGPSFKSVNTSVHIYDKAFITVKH

B1: 22-2 (ligand)
chain: AHYNTEILKSIDNEWRKTQCMPREVCIDVGKEFGVATNTFFKPPCVSVYRCGGCCNDEGLECMNTSTSYLSKTLFEIKPHQGQHIGEMSFLQHNKCECRPKKD
Consider B1, for which the results for the binding result with VEGFR-3-Fc, with VEGFR-2-Fc and with VEGFR-1-Fc were “binds”, “binds” and “no binding”, respectively.

B2: 22-14 (ligand)
chain: AHYNTEILKSIDNEWRKTQCMPREVCIDVGKEFGVATNTFFKPPCVSVYRCGGCCNDEGLECMNTSTSYLSKTLFEITVPLSQGPKPVTISFANHTSCRCMSKLD
As to B2, the binding result was “binds” with VEGFR-3-Fc, “binds” with VEGFR-2-Fc and “no binding” with VEGFR-1-Fc.

B3: 23-14 (ligand)
chain: AHYNTEILKSIDNEWRKTQCMPREVCIDVGKEYPDEIEYIFKPPCVSVYRCGGCCNDEGLECMNTSTSYLSKTLFEITVPLSQGPKPVTISFANHTSCRCMSKLD
Turning to B3, the binding result with VEGFR-3-Fc is listed as “no binding”; with VEGFR-2-Fc, “binds”; with VEGFR-1-Fc, “no binding”.

B4: 53-14 (ligand)
chain: AHYNTEILKSIDNEWRKTQCMPIETLVDIFQEYPDEIEYIFKPPCVSVYRCGGCCNDEGLECMNTSTSYLSKTLFEITVPLSQGPKPVTISFANHTSCRCMSKLD
On to B4, for which the binding result with VEGFR-3-Fc, with VEGFR-2-Fc and with VEGFR-1-Fc was “no binding” each time.

B5: 24-14 (ligand)
chain: AHYNTEILKSIDNEWRKTQCMPREVCIDVGKEFGVATNTFFKPSCVPLMRCGGCCNDEGLECMNTSTSYLSKTLFEITVPLSQGPKPVTISFANHTSCRCMSKLD
For the molecule B5, the binding result with VEGFR-3-Fc, with VEGFR-2-Fc and in the test with VEGFR-1-Fc was “no binding” throughout.

B6: 23-12 (ligand)
chain: AHYNTEILKSIDNEWRKTQCMPREVCIDVGKEYPDEIEYIFKPPCVSVYRCGGCCNSEGLQCMNTSTSYLSKTLFEITVPLSQGPKPVTISFLQHNKCECRPKKD
Turning to B6, the binding result is “no binding” in the test with VEGFR-3-Fc, “binds” with VEGFR-2-Fc and “no binding” with VEGFR-1-Fc.

B7: 23-16 (ligand)
chain: AHYNTEILKSIDNEWRKTQCMPREVCIDVGKEYPDEIEYIFKPPCVSVYRCGGCCNSEGLQCMNTSTSYLSKTLFEITVPLSQGPKPVTISFANHTSCRCMSKLD
For the molecule B7, the binding result with VEGFR-3-Fc, with VEGFR-2-Fc and in the test with VEGFR-1-Fc was “no binding” in each case.

B8: 24-10 (ligand)
chain: AHYNTEILKSIDNEWRKTQCMPREVCIDVGKEFGVATNTFFKPSCVPLMRCGGCCNDEGLECMNTSTSYLSKTLFEITVPLSQGPKPVTISFLQHNKCECRPKKD
With B8, the binding result with VEGFR-3-Fc, in the test with VEGFR-2-Fc and with VEGFR-1-Fc was “no binding” throughout.

B9: 21-14 (ligand)
chain: AHYNTEILKSIDNEWRKTQCMPREVCIDVGKEYPDEIEYIFKPSCVPLMRCGGCCNDEGLECMNTSTSYLSKTLFEITVPLSQGPKPVTISFANHTSCRCMSKLD
In the case of B9, the binding result with VEGFR-3-Fc, in the test with VEGFR-2-Fc and with VEGFR-1-Fc was “no binding” throughout.

B10: 22-12 (ligand)
chain: AHYNTEILKSIDNEWRKTQCMPREVCIDVGKEFGVATNTFFKPPCVSVYRCGGCCNSEGLQCMNTSTSYLSKTLFEITVPLSQGPKPVTISFLQHNKCECRPKKD
B10: the binding result with VEGFR-3-Fc was “binds”; in the test with VEGFR-2-Fc, “binds”; with VEGFR-1-Fc, “no binding”.

B11: 21-16 (ligand)
chain: AHYNTEILKSIDNEWRKTQCMPREVCIDVGKEYPDEIEYIFKPSCVPLMRCGGCCNSEGLQCMNTSTSYLSKTLFEITVPLSQGPKPVTISFANHTSCRCMSKLD
For B11, the binding result with VEGFR-3-Fc, in the test with VEGFR-2-Fc and with VEGFR-1-Fc was “no binding” each time.

B12: 74-14 (ligand)
chain: GQNHHEVVKSIDNEWRKTQCMPREVCIDVGKEFGVATNTFFKPSCVPLMRCGGCCNDEGLECMNTSTSYLSKTLFEITVPLSQGPKPVTISFANHTSCRCMSKLD
Turning to B12, the binding result in the test with VEGFR-3-Fc, with VEGFR-2-Fc and with VEGFR-1-Fc was “no binding” in each case.

B13: 24-16 (ligand)
chain: AHYNTEILKSIDNEWRKTQCMPREVCIDVGKEFGVATNTFFKPSCVPLMRCGGCCNSEGLQCMNTSTSYLSKTLFEITVPLSQGPKPVTISFANHTSCRCMSKLD
Take B13: the binding result with VEGFR-3-Fc, with VEGFR-2-Fc and with VEGFR-1-Fc was “no binding” each time.

B14: 23-10 (ligand)
chain: AHYNTEILKSIDNEWRKTQCMPREVCIDVGKEYPDEIEYIFKPPCVSVYRCGGCCNDEGLECMNTSTSYLSKTLFEITVPLSQGPKPVTISFLQHNKCECRPKKD
notes: clone entry
In the case of B14, the binding result is “no binding” with VEGFR-3-Fc, “binds” in the test with VEGFR-2-Fc and “no binding” with VEGFR-1-Fc.

B15: 22-10 (ligand)
chain: AHYNTEILKSIDNEWRKTQCMPREVCIDVGKEFGVATNTFFKPPCVSVYRCGGCCNDEGLECMNTSTSYLSKTLFEITVPLSQGPKPVTISFLQHNKCECRPKKD
As to B15, the binding result with VEGFR-3-Fc is “binds”; in the test with VEGFR-2-Fc, “binds”; with VEGFR-1-Fc, “no binding”.

B16: 72-16 (ligand)
chain: GQNHHEVVKSIDNEWRKTQCMPREVCIDVGKEFGVATNTFFKPPCVSVYRCGGCCNSEGLQCMNTSTSYLSKTLFEITVPLSQGPKPVTISFANHTSCRCMSKLD
For the molecule B16, the results for the binding result in the test with VEGFR-3-Fc, with VEGFR-2-Fc and with VEGFR-1-Fc were “binds”, “binds” and “no binding”, respectively.

B17: 51-14 (ligand)
chain: AHYNTEILKSIDNEWRKTQCMPIETLVDIFQEYPDEIEYIFKPSCVPLMRCGGCCNDEGLECMNTSTSYLSKTLFEITVPLSQGPKPVTISFANHTSCRCMSKLD
For B17, the binding result with VEGFR-3-Fc, with VEGFR-2-Fc and with VEGFR-1-Fc was “no binding” in each case.

B18: 52-14 (ligand)
chain: AHYNTEILKSIDNEWRKTQCMPIETLVDIFQEFGVATNTFFKPPCVSVYRCGGCCNDEGLECMNTSTSYLSKTLFEITVPLSQGPKPVTISFANHTSCRCMSKLD
For the molecule B18, the binding result in the test with VEGFR-3-Fc is reported as “binds”; with VEGFR-2-Fc it was “no binding”; with VEGFR-1-Fc it was “no binding”.

B19: 52-16 (ligand)
chain: AHYNTEILKSIDNEWRKTQCMPIETLVDIFQEFGVATNTFFKPPCVSVYRCGGCCNSEGLQCMNTSTSYLSKTLFEITVPLSQGPKPVTISFANHTSCRCMSKLD
As for B19, the binding result in the test with VEGFR-3-Fc is reported as “binds”; with VEGFR-2-Fc it was “binds”; with VEGFR-1-Fc, “no binding”.

B20: 21-10 (ligand)
chain: AHYNTEILKSIDNEWRKTQCMPREVCIDVGKEYPDEIEYIFKPSCVPLMRCGGCCNDEGLECMNTSTSYLSKTLFEITVPLSQGPKPVTISFLQHNKCECRPKKD
For the molecule B20, the binding result in the test with VEGFR-3-Fc, in the test with VEGFR-2-Fc and with VEGFR-1-Fc was “no binding” in each case.

B21: 72-14 (ligand)
chain: GQNHHEVVKSIDNEWRKTQCMPREVCIDVGKEFGVATNTFFKPPCVSVYRCGGCCNDEGLECMNTSTSYLSKTLFEITVPLSQGPKPVTISFANHTSCRCMSKLD
For B21, the values for the binding result with VEGFR-3-Fc, with VEGFR-2-Fc and in the test with VEGFR-1-Fc were “binds”, “binds” and “no binding”, respectively.
